According to PMC6389977:
pKd: −log10 of the molar value.

Biological target: purified recombinant human GAPDH protein (human) (UniProt P04406)
Assay: SPR

Sequence of purified recombinant human GAPDH protein (human) (P04406 whole entry): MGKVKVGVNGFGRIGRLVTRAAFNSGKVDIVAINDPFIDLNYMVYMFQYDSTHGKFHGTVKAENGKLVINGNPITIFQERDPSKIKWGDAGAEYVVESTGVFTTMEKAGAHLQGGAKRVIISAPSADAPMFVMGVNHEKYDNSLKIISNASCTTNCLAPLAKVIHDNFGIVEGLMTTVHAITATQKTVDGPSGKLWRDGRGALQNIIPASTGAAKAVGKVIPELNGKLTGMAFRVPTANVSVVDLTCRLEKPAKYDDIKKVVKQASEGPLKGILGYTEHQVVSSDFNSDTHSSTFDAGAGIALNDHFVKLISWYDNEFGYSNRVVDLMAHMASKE
Sequence of DENV2 NS3 protease domain (domain or fragment) (P14340 1476-1660 limits assumed): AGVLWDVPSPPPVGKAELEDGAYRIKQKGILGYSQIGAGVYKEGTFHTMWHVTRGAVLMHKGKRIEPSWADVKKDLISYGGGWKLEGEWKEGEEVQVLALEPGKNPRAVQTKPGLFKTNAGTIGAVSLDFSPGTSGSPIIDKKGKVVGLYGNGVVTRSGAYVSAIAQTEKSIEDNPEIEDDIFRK
Sequence of DENV2 NS3 helicase domain (domain or fragment) (P14340 1644-2093 limits assumed): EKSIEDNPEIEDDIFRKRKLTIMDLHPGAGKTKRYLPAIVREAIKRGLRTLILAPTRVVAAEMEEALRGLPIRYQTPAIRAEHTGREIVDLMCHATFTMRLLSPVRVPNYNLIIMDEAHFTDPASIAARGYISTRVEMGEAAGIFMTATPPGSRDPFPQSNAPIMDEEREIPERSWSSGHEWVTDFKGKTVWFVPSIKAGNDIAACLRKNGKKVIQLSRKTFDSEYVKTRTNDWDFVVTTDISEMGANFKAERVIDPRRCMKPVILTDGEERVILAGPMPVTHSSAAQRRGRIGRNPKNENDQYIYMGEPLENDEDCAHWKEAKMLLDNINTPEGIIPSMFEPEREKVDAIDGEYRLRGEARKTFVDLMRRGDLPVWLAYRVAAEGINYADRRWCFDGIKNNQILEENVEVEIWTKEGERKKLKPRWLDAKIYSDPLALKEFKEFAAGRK

Row | Substance | pKd
1 | DENV2 NS3 protease domain (domain or fragment) | 5.62
2 | DENV2 NS3 helicase domain (domain or fragment) | 5.60
